Results published in US20210363269A1 (ALX ONCOLOGY, published 2021).
Where a chain is given by its changes, count along the chain named. In names and notes the source's numbering stands. Like-named read-outs stand apart in the source and are kept apart here.

Assays:
[1] = biological target: T1, human SIRP-α v1 (human, UniProt P78324 31-149); assay: SPR
T1 construct: also called Human v1; Human V1
Procedure, shortened: (§1)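 Runs took place at 25° C in PBS pH 7.4 containing 0.01% Tween-20 on a ProteOn XPR36 biosensor, with purified antibodies either amine-coupled to a GLC chip or captured through biotinylated Protein A on an NLC chip. SIRP analytes went in by one-shot kinetic injection at nominal concentrations based on A280 absorbance. Apparent rate constants came from a global simple Langmuir fit of double-referenced data, and KD was calculated as kd/ka.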

[2] = biological target: T2, human SIRPβ isoform 1 (human, UniProt O00241 30-148); assay: SPR Koff +/-
T2 construct: also called Beta; Human SIRPb
Procedure, shortened: as §1

[3] = biological target: T3, human SIRPγ isoform 1 (human, UniProt Q9P1W8 29-147); assay: SPR Koff +/-
T3 construct: also called Gamma; Human SIRPg
Procedure, shortened: as §1

[4] = biological target: T4, mouse 129 SIRP-α (mouse (129 strain), UniProt P97797 32-150); assay: SPR Koff +/-
T4 construct: also called m129
T4 chain: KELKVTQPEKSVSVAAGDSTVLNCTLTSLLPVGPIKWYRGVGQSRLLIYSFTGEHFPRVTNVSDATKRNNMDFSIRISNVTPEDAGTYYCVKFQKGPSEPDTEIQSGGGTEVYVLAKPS
Procedure, shortened: as §1

[5] = biological target: T5, cynomolgus SIRP-α (cynomolgus monkey, UniProt Q5TFQ8 30-148 (human entry), limits assumed); assay: SPR Koff +/-
T5 construct: also called cyno1
T5 chain: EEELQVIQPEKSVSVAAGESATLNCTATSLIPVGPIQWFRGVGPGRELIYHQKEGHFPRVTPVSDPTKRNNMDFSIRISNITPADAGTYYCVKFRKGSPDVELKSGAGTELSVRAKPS
Procedure, shortened: as §1

[6] = biological target: T6, human SIRP-α v2 (human); assay: SPR KD
T6 construct: also called Human v2; Human V2
Procedure, shortened: as §1

[7] = biological target: T7, human SIRPγ isoform 1 (human, UniProt Q9P1W8 29-147); assay: SPR, ProteOn, antibody on chip
T7 construct: also called sirpg; sirp-g

[8] = biological target: T8, cynomolgus SIRP-α D1 domain (SEQ ID NO:11) (cynomolgus, UniProt Q5TFQ8 30-148 (human entry), limits assumed); assay: SPR, ProteOn, antibody on chip
T8 construct: also called cyno1
T8 chain: T5 chain

[9] = biological target: T9, human SIRPβ isoform 2 (human, UniProt Q5TFQ8 30-148); assay: SPR, ProteOn, antibody on chip
T9 construct: also called Sirpb2; beta isoform 2

[10] = biological target: T10, human SIRP-α v1 D1 domain (human, UniProt P78324 31-149); assay: SPR, ProteOn, antibody on chip
T10 construct: also called human v1; human α v1

[11] = biological target: T11, human SIRPβ isoform 1 (human, UniProt O00241 30-148); assay: SPR, ProteOn, antibody on chip
T11 construct: also called sirpb1; Sirpb1

[12] = biological target: T12, human SIRP-α v2 D1 domain (human); assay: SPR, ProteOn, antibody on chip
T12 construct: also called human v2; human α v2

[13] = biological target: T8, cynomolgus SIRP-α D1 domain (SEQ ID …); assay: SPR, antibody immobilised on GLC chip
[14] = biological target: T10, human SIRP-α v1 D1 domain; assay: SPR, antibody immobilised on GLC chip
[15] = biological target: T12, human SIRP-α v2 D1 domain; assay: SPR, antibody immobilised on GLC chip
[16] = biological target: T13, NOD mouse SIRP-α (mouse (NOD strain)); assay: SPR
T13 chain: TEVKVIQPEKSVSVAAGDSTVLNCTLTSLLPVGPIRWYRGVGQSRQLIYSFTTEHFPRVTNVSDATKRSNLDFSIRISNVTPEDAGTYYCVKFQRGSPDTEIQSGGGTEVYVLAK
Procedure, shortened: as §1

[17] = biological target: T6, human SIRP-α v2; assay: SPR
Procedure, shortened: as §1

[18] = biological target: T2, human SIRPβ isoform 1; assay: SPR
Procedure, shortened: as §1

[19] = biological target: T3, human SIRPγ isoform 1; assay: SPR
Procedure, shortened: as §1

[20] = biological target: T14, BL6 mouse SIRP-α (mouse (C57BL/6 strain), UniProt P97797 32-148); assay: SPR
T14 construct: also called C57BL/6
T14 sequence: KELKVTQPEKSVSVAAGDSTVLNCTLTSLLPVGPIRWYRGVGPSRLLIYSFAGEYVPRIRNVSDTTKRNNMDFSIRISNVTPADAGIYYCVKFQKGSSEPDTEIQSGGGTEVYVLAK
Procedure, shortened: as §1

[21] = biological target: T1, human SIRP-α v1; assay: SPR; remark: listed apart in the source
Procedure, shortened: as §1

[22] = biological target: T15, BALBc mouse SIRP-α (mouse (BALB/c strain)); assay: SPR
T15 chain: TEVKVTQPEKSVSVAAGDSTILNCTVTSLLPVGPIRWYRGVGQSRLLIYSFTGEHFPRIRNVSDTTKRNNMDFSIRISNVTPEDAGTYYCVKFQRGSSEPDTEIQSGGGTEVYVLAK
Procedure, shortened: as §1

[23] = biological target: T5, cynomolgus SIRP-α; assay: SPR
Procedure, shortened: as §1

[24] = biological target: T8, cynomolgus SIRP-α D1 domain (SEQ ID …); assay: SPR, Langmuir fit
[25] = biological target: T16, NOD mouse SIRP-α D1 domain (mouse (NOD strain)); assay: SPR, Langmuir fit
T16 chain: T13 chain

[26] = biological target: T17, cynomolgus SIRP-α D1 domain (SEQ ID NO:12) (cynomolgus, UniProt Q5TFQ8 30-148 (human entry), limits assumed); assay: SPR, Langmuir fit
T17 construct: also called cyno2; Cyno2
T17 chain: T5 chain with E19D, A27V, T28S, V42A, H51N, Q52L, P62A

[27] = biological target: T18, BALB/c mouse SIRP-α D1 domain (mouse (BALB/c strain)); assay: SPR, Langmuir fit
T18 chain: T15 chain

[28] = biological target: T19, C57BL/6 mouse SIRP-α D1 domain (mouse (C57BL/6 strain), UniProt P97797 32-148); assay: SPR, Langmuir fit
T19 sequence: T14 sequence

T6 sequence (chain, as listed by the source limits assumed): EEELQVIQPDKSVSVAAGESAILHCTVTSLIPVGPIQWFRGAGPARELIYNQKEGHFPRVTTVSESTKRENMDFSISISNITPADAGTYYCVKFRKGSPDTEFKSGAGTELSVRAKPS
T12 sequence (chain, as listed by the source limits assumed): as above
T1 sequence (P78324 31-149 limits assumed): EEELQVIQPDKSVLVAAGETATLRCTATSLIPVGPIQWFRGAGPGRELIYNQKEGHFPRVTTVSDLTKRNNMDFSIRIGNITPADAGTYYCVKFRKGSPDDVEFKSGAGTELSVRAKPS
T9 sequence (Q5TFQ8 30-148 limits assumed): as the sequence (P78324 31-149 limits assumed) above, with V13I, L14S, T20S, R24H, A27V, G79S, D101H counted along it

B1: antibody 123 (antibody, V domains shown)
VH: VQLVESGGGLVQPGGSLRLSCTASGFTFRNYGMSWVRQAPGEGLEWVSASSGSGSTYYTDSVKGRFTISRDNSKNTLYLQMNSLRAEDTAIYYCAKVTWNNFFDYWGLGTLVTVSS
VL: EIVLTQSPGTLSVSPGERVTLTCRASQGIAGKIAWYQQKPGQAPRLLIYDASSRATGIPGRFSGSGSGTEFTLTITSLQSEDFAVYYCQQHYDWSPLTFGGGTKVEIK
notes: also called S123
With B1 the Kd [1] was 0.605 nM, the binding result [2] was “no binding” and the binding result [3] was “binds”. B1: no binding [4]; binds [5]; no binding [6].

B2: antibody 194 (antibody, V domains shown)
VH: DVQLVESGGGVVRPGESLRLSCAASGFTFRNYGMSWVRQAPGEGLEWVSASSGSGSTYYADSVKGRFTISRDNSKNTLYLQMNSLRAEDTAIYYCAKVTWNNFFDYWGLGTLVTVSS
VL: EIVLAQSPDTLSVSPGERATLTCRASQDVAGKLAWYQQKPGQAPRLLIHATSSRADGIPARFSGSGSGTEFTLTITGLQSEDFAVYYCQQHYDWSPLTFGGGTKVEIK
notes: also called S194
For B2, the Kd [1] was 0.497 nM, the binding result [2] was “no binding” and the binding result [6] was “no binding”.

B3: AB132a (antibody, human IgG1, V domains shown)
VH: DVQLVESGGGVVRPGESLRLSCAASGFSFRSYAMNWVRQAPGEGLEWVSRINSGGGGTDYADSVKGRFTISRDNSKNTLYLQMNSLRAEDTAVYYCAKQYDWNSFFDYWGLGALVTVSS
VL: ETVLTQSPATLSVSPGERATLSCRASQTVGSKLAWHQQKPGQAPRLLIYDASNRATGIPDRFSGSGSGTDFTLTISSPQTEDSAVYYCQQYYYWPPYRFGGGTKVEIK
notes: Full-length human IgG1 with L234A, L235A, G237A and N297A; only variable domains tied to the clone
Binder B3 has a Kd [7] of 0.519 nM, a Kd [8] of 2.41 nM and a Kd [9] of 0.164 nM. For the same binder, the Kd [10] was 0.426 nM, the Kd [11] was 0.131 nM and the Kd [12] was 1.86 nM.

B4: AB119a (antibody, human IgG1, V domains shown)
VH: DVQLLESGGGVVQPGGSLRLSCAASGFSFSNFAMTWVRQAPGEGLEWVSTIGSGDTYYADSVKGRFTISRDNSKNTLYLQMNSLRAEDTAVYYCAKDSTVSWSGDFFDYWGLGTLVTVSS
VL: EIVLTQSPATLSVSPGERATFSCRASQNVKNDLAWYQQRPGQAPRLLIYAARIRETGIPERFSGSGSGTEFTLTITSLQSEDFAVYYCQQYYDWPPFTFGGGTKVEIK
notes: as for B3
B4 showed a Kd [7] of 0.886 nM, a Kd [8] of 0.145 nM and a Kd [9] of 0.376 nM. It also gave a Kd [10] of 0.198 nM, a Kd [11] of 0.342 nM and a Kd [12] of 0.0799 nM. For the same binder, the Kd [13] was 0.112 nM, the Kd [14] was 0.183 nM and the Kd [15] was 0.0682 nM.

B5: Hum1/AB21_HC_Mutall (antibody, V domains shown)
VH: EVQLVESGGGVVQPGGSLRLSCAASGFTFSSNAMSWVRQAPGKGLEWVAGISAGGSDTYYPASVKGRFTISRDNSKNTLYLQMNSLRAEDTAVYYCARETWNHLFDYWGQGTLVTVSS
VL: SYELTQPPSVSVSPGQTARITCSGGSYSSYYYAWYQQKPGQAPVTLIYSDDKRPSNIPERFSGSSSGTTVTLTISGVQAEDEADYYCGGYDQSSYTNPFGGGTKLTVL
notes: also called Hum1/AB21mutall
B5 was tested, and the Kd [16] was 3.7 nM, the Kd [17] was 0.0046 nM and the Kd [18] was 0.0067 nM. For the same binder, the Kd [19] was < 0.001 nM, the Kd [20] was 9.5 nM and the Kd [21] was 0.00532 nM. It also gave a Kd [22] of 7.91 nM and a Kd [23] of 0.0291 nM.

B6: Hum9/AB21_HC_Mutall (antibody, V domains shown)
VH: B5 VH
VL: B5 VL with S26A, T45L, L46V, N56G
notes: also called Hum9/AB21mutall
B6 showed a Kd [16] of 24.1 nM, a Kd [17] of 0.119 nM and a Kd [18] of 0.0569 nM. The Kd [19] was 0.0345 nM, the Kd [21] was 0.0119 nM and the Kd [22] was 136 nM. The Kd [23] was 0.222 nM.

B7: AB45 (as in Table J1) (antibody, V domains shown)
VH: AVTLDESGGGLQTPGGALSLVCKASGFTFSSYAMGWVRQAPGKGLEWVAGIDDDGSTANYGPAVKGRATISRDNGQSTVRLQLNNPRAEDSGTYFCAKASVTGWSAHISGRLDTWGHGTEVIVSS
VL: ALTQPASVSANPGETVKITCSGGGIYYYGWYQQKSPGSAPVTLIYENDKRPSDIPSRFSGSTSGSTNTFTITGVQAEDEAVYYCGGYDSNTTSGIFGAGTTLTVL
notes: also called antibody 45
B7: no binding [24]; no binding [25]; no binding [26]. B7: no binding [27]; no binding [28].
